Data reported in publication PMC2190585 (The Journal of Cell Biology, 2000).

Target: T1, COOH-terminal domain of Numb (aa 298–603), purified (human, UniProt P49757-2 298-603)
T1 sequence (looked up): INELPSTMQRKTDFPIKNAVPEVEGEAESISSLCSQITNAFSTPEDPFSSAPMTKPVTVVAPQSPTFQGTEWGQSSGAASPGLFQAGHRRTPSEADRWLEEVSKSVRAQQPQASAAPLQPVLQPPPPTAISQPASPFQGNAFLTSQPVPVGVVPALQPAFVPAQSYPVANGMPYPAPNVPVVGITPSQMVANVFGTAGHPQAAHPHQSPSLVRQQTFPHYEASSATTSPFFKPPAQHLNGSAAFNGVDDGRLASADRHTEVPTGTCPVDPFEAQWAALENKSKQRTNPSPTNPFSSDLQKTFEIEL
Experiment: pull-down

B1: GST–α ear (GST fusion protein containing aa 715–977 of the mouse α adaptin) (domain or fragment, UniProt P17426 715-977, looked up)
chain: PMALLADPAPAADPGPEDIGPPIPEADELLNKFVCKNSGVLFENQLLQIGVKSEFRQNLGRMYLFYGNKTSVQFQNFLPTVVHPGDLQTQLAVQTKRVAAQVDGGAQVQQVLNIECLRDFLTPPLLSVRFRYGGTAQSLTLKLPVTINKFFQPTEMAAQDFFQRWKQLSLPLQEAQKIFKANHPMDAEVTKAKLLGFGSALLDNVDPNPENFVGAGIIQTKALQVGCLLRLEPNAQAQMYRLTLRTSKEPVSRHLCELLAQQF
  binding result: binds
